# Results published in publication PMC4477667.
# Target: Deinococcus radiodurans RNase J, wild type, full-length (residues 1-559) (Deinococcus radiodurans)
# Assay: SEC
substance,measurement,value
"Deinococcus radiodurans RNase J, wild type, full-length (residues 1-559) (enzyme)",stoichiometry N,2
